B1: HAMLET: tumoricidal unfolded protein-lipid complex of partially unfolded human α-lactalbumin and oleic acid (protein, UniProt P00709 20-142, looked up)
Alpha-lactalbumin: KQFTKCELSQLLKDIDGYGGIALPELICTMFHTSGYDTQAIVENNESTEYGLFQISNKLWCKSSQVPQSRNICDISCDKFLDDDITDDIMCAKKILDIKGIDYWLAHKALCTEKLEQWLCEKL
modifications: complexed with oleic acid

Legend:
DLD1 cells = assay: Cell death assays (Prestoblue and ATPlite); format: cell-based, human; details: 7, 21 and 35 μM each, FIG. 12g-i
Protocol: Two assays were used as an indirect measure of cell death. Luminescence-based ATPlite™ kit (Perkin Elmer) as well as the Prestoblue assay (ThermoFisher Scientific). Cells (5×10^4 cells/well) were seeded in serum-free RPMI-1640 on 96-well plates and treated with BAMLET and alpha1-oleate at different concentration (7, 21, and 35 μM) and incubated for one hour. Afterward, FCS was added at concentration of 5% and the cells were continuously incubated for two hours at 37° C., at the end of which the two kits were used according to manufactures' instructions. Luminescence and fluorescence were measured using a microplate reader (Infinite F200, Tecan). The experiments were performed in triplicate and repeated twice.

bladder cancer [1] = details: patients; cited from earlier work
skin papillomas = details: topical application; cited from earlier work
bladder cancer [2] = details: local instillations; cited from earlier work
tumor cells = details: cited from earlier work

| Molecule | tumoricidal effect, BAMLET compared with alpha1-oleate (DLD1 cells) | therapeutic efficacy in bladder cancer (bladder cancer [1]) | effect on skin papillomas (skin papillomas) | tumor size in bladder cancer (bladder cancer [2]) | tumor cell killing in vitro (tumor cells) |
| --- | --- | --- | --- | --- | --- |
| alpha1-oleate: HAMLET family member formed by the N-terminal alpha-helical peptide (aa 1-39) of alpha-lactalbumin and oleate [reference compound] | similar | has shown therapeutic efficacy |  |  |  |
| B1 |  |  | removed or reduced skin papillomas | caused a reduction in tumor size | kills many types of tumor cells |

Reference: patent publication US20260108588A1, “A COMPLEX COMPRISING A ALPHA-LACTALBUMIN AND A FATTY ACID OR LIPID FOR USE IN THE TREATMENT OR PREVENTION OF CANCER” (LINNANE PHARMA AB, priority 2022, published 2026)
